Data reported in publication PMC6424611.

Key:
[1] = target: biotinylated RSK1 725-735 peptide, unphosphorylated (human) (UniProt Q15418); test: holdup assay
[2] = target: biotinylated RSK1 725-735 peptide, phosphorylated at Ser732 (position -3) (human) (UniProt Q15418); test: holdup assay
[3] = target: biotinylated RSK1 725-735 peptide, phosphorylated at Ser732 (position -3) (human) (UniProt Q15418); test: SPR
[4] = target: MBP-fused PDZ domain 1 of PDZRN3 (human) (UniProt Q9UPQ7); test: fluorescence polarisation
[5] = target: MBP-fused PDZ domain of GOPC (human) (UniProt Q9HD26); test: fluorescence polarisation
[6] = target: MBP-fused PDZ domain of SYNJ2BP (human) (UniProt P57105); test: fluorescence polarisation
[7] = target: MBP-fused PDZ domain of ARHGEF12 (human) (UniProt Q9NZN5); test: fluorescence polarisation
[8] = target: Scribble PDZ1 (Homo sapiens) (UniProt Q14160); test: holdup assay; details: cited from earlier work
[9] = target: biotinylated RSK1 725-735 peptide, unphosphorylated (human) (UniProt Q15418); test: SPR
[10] = target: ARHGEF12 PDZ domain (UniProt Q9NZN5); test: SPR, biotin-peptide on streptavidin chip; details: reference: unphosphorylated peptide; sites S732
[11] = target: MAST2 PDZ domain (UniProt Q6P0Q8); test: SPR, biotin-peptide on streptavidin chip; details: reference: unphosphorylated peptide; sites S732
[12] = target: PDZD7 PDZ domain 3 (UniProt Q9H5P4); test: SPR, biotin-peptide on streptavidin chip; details: reference: unphosphorylated peptide; sites S732
[13] = target: MAST1 PDZ domain (UniProt Q9Y2H9); test: SPR, biotin-peptide on streptavidin chip; details: reference: unphosphorylated peptide; sites S732
[14] = target: GOPC PDZ domain (UniProt Q9HD26); test: SPR, biotin-peptide on streptavidin chip; details: reference: unphosphorylated peptide; sites S732
[15] = target: SHROOM2 PDZ domain (UniProt Q13796); test: automated holdup, biotin-peptide resin; details: reference: unphosphorylated peptide; sites S732
[16] = target: NHERF2 PDZ domain 2 (UniProt Q15599); test: automated holdup, biotin-peptide resin; details: reference: unphosphorylated peptide; sites S732
[17] = target: NHERF3 PDZ domain 1 (UniProt Q5T2W1); test: automated holdup, biotin-peptide resin; details: reference: unphosphorylated peptide; sites S732
[18] = target: LNX1 PDZ domain 3 (UniProt Q8TBB1); test: automated holdup, biotin-peptide resin; details: reference: unphosphorylated peptide; sites S732
[19] = target: GRASP PDZ domain (UniProt Q7Z6J2); test: automated holdup, biotin-peptide resin; details: reference: unphosphorylated peptide; sites S732
[20] = target: LAP2 PDZ domain (UniProt Q96RT1); test: automated holdup, biotin-peptide resin; details: reference: unphosphorylated peptide; sites S732
[21] = target: MAGI1 PDZ domain 2 (UniProt Q96QZ7); test: automated holdup, biotin-peptide resin; details: reference: unphosphorylated peptide; sites S732
[22] = target: PTPN3 PDZ domain (UniProt P26045); test: automated holdup, biotin-peptide resin; details: reference: unphosphorylated peptide; sites S732
[23] = target: GRID2IP PDZ domain 1 (UniProt A4D2P6); test: automated holdup, biotin-peptide resin; details: reference: unphosphorylated peptide; sites S732
[24] = target: PPP1R9A PDZ domain (UniProt Q9ULJ8); test: automated holdup, biotin-peptide resin; details: reference: unphosphorylated peptide; sites S732
[25] = target: SHANK3 PDZ domain (UniProt Q9BYB0); test: automated holdup, biotin-peptide resin; details: reference: unphosphorylated peptide; sites S732
[26] = target: MAGI3 PDZ domain 2 (UniProt Q5TCQ9); test: automated holdup, biotin-peptide resin; details: reference: unphosphorylated peptide; sites S732
[27] = target: PDZRN3 PDZ domain 1 (UniProt Q9UPQ7); test: automated holdup, biotin-peptide resin; details: reference: unphosphorylated peptide; sites S732
[28] = target: LIMK2 PDZ domain (UniProt P53671); test: automated holdup, biotin-peptide resin; details: reference: unphosphorylated peptide; sites S732
[29] = target: DLG4 PDZ domain 2 (UniProt P78352); test: automated holdup, biotin-peptide resin; details: reference: unphosphorylated peptide; sites S732
[30] = target: GORASP2 PDZ domain (UniProt Q9H8Y8); test: automated holdup, biotin-peptide resin; details: reference: unphosphorylated peptide; sites S732
[31] = target: ARHGEF11 PDZ domain (UniProt O15085); test: automated holdup, biotin-peptide resin; details: reference: unphosphorylated peptide; sites S732
[32] = target: HTRA1 PDZ domain (UniProt Q92743); test: automated holdup, biotin-peptide resin; details: reference: unphosphorylated peptide; sites S732
[33] = target: GORASP1 PDZ domain (UniProt Q9BQQ3); test: automated holdup, biotin-peptide resin; details: reference: unphosphorylated peptide; sites S732
[34] = target: DFNB31 PDZ domain 3 (UniProt Q9P202); test: automated holdup, biotin-peptide resin; details: reference: unphosphorylated peptide; sites S732
[35] = target: MAGI2 PDZ domain 2 (UniProt Q86UL8); test: automated holdup, biotin-peptide resin; details: reference: unphosphorylated peptide; sites S732

MBP-fused PDZ domain 1 of PDZRN3 (human), sequence (Q9UPQ7 249-339): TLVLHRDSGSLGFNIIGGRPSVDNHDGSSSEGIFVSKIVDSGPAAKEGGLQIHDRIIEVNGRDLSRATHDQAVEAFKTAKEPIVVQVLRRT
MAST1 PDZ domain, sequence (Q9Y2H9 whole entry, looked up, the tested form may be a part): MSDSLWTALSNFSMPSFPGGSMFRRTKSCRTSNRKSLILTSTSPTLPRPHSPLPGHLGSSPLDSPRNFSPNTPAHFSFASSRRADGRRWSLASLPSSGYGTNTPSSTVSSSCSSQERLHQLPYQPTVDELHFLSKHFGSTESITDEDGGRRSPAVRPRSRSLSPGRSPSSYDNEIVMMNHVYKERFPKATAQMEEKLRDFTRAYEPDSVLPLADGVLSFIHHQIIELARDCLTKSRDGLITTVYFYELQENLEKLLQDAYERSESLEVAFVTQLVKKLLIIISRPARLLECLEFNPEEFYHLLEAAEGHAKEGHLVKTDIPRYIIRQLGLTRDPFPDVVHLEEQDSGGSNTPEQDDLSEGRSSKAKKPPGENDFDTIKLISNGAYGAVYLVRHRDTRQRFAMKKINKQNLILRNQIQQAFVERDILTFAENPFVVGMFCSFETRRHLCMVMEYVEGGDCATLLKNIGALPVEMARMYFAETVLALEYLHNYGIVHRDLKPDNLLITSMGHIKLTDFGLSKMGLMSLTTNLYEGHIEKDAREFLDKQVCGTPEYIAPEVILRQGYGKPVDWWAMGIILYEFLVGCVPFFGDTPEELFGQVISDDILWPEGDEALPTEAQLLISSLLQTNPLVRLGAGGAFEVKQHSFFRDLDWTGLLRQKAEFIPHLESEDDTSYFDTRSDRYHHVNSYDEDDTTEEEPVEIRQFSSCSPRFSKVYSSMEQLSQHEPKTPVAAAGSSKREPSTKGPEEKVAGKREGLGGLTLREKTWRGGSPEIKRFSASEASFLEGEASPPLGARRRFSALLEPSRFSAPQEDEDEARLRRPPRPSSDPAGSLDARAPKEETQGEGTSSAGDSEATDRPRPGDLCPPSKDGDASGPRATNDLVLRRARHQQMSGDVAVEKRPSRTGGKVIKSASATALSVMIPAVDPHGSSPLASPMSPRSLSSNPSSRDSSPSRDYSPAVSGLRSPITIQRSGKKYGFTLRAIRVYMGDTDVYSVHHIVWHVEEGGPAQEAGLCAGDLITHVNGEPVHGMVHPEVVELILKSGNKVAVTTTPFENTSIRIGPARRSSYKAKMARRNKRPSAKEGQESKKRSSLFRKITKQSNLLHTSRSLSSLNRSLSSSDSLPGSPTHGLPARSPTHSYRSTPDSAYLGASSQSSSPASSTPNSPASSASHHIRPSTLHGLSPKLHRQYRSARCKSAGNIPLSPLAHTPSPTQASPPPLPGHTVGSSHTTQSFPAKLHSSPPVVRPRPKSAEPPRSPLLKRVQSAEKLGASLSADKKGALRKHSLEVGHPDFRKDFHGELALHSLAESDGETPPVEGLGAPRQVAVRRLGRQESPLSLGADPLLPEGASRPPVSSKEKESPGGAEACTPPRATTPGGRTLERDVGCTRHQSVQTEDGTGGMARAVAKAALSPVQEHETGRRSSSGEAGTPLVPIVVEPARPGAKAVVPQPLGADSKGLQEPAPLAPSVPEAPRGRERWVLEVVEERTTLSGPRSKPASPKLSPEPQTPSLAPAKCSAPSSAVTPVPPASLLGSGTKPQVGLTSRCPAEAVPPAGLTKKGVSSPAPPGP
HPV16 E6 PBM, sequence (P03126 whole entry, looked up): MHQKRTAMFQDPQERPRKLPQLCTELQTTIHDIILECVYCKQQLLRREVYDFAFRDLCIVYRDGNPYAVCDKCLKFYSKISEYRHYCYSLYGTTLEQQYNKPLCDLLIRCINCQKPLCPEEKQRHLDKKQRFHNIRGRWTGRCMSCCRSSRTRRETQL
GRID2IP PDZ domain 1, sequence (A4D2P6 whole entry, looked up, the tested form may be a part): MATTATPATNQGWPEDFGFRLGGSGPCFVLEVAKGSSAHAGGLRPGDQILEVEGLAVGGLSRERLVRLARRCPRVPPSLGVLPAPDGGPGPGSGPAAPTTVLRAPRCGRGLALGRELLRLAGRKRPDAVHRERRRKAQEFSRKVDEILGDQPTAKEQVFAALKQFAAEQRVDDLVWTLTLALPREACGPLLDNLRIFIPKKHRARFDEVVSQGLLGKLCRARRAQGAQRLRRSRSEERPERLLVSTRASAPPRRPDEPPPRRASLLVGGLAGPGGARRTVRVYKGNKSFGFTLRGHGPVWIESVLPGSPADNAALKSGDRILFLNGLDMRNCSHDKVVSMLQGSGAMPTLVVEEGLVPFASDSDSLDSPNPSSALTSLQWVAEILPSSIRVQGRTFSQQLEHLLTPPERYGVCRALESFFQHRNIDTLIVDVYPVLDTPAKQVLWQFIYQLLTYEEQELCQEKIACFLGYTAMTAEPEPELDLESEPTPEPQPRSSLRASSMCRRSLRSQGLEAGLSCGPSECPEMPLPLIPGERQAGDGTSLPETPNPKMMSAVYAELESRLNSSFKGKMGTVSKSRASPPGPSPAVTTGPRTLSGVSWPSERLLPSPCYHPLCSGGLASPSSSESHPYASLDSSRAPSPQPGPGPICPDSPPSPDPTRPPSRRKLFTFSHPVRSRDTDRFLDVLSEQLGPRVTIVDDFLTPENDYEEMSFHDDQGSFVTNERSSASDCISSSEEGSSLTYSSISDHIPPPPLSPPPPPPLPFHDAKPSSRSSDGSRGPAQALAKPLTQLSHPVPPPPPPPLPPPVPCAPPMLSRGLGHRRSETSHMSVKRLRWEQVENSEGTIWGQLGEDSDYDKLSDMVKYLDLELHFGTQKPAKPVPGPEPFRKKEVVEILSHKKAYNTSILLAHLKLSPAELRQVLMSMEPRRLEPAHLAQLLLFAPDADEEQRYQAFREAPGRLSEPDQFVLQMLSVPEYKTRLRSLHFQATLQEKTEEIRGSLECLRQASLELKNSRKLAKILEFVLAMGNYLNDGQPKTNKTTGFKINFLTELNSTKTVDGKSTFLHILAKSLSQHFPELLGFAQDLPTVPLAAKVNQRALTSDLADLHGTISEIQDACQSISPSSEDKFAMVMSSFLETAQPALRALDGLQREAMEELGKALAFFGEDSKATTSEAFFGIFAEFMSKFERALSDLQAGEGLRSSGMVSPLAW
MAST2 PDZ domain, sequence (Q6P0Q8 whole entry, looked up, the tested form may be a part): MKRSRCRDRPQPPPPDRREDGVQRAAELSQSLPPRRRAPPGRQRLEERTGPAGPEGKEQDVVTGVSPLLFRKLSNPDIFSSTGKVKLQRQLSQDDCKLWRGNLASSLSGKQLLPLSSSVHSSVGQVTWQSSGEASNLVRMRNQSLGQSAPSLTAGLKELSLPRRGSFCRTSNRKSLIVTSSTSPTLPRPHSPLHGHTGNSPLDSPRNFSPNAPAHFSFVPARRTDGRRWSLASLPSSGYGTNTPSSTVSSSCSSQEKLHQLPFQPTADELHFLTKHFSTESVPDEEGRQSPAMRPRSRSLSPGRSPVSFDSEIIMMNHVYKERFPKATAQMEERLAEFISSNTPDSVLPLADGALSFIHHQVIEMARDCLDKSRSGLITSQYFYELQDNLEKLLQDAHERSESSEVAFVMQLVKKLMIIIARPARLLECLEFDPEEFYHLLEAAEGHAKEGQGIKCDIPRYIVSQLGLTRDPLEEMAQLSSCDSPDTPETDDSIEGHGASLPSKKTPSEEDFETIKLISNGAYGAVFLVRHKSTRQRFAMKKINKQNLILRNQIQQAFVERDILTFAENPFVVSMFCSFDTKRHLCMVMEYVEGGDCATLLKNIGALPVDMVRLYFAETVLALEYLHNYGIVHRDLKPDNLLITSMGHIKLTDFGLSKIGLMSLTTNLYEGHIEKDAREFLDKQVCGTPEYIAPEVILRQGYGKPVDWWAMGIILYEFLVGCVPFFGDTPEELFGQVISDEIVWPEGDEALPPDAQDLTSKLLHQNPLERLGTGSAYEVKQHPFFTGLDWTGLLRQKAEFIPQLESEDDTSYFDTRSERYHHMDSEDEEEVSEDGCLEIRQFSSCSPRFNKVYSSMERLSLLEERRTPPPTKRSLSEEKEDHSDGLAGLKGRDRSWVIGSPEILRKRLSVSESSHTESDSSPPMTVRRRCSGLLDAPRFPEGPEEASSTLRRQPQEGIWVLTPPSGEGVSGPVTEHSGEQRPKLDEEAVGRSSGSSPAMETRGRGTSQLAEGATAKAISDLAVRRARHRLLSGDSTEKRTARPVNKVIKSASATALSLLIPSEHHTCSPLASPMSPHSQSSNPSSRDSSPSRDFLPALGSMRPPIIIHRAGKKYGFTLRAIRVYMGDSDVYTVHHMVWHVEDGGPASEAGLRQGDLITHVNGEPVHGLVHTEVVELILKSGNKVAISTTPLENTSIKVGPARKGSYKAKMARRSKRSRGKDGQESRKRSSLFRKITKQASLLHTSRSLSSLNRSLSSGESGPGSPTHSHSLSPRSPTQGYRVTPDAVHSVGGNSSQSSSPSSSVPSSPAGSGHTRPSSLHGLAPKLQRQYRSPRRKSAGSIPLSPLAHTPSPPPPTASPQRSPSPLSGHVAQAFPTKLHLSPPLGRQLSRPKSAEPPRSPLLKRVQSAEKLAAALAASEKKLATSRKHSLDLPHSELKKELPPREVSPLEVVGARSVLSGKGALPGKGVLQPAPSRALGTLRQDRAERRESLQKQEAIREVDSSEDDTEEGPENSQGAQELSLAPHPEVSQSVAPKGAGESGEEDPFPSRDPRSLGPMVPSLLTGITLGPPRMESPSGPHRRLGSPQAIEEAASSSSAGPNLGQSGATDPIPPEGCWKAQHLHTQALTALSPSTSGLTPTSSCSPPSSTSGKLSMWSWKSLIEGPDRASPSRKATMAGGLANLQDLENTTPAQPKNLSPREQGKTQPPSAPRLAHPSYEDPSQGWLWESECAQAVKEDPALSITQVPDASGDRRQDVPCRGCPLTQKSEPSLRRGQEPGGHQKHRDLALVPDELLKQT
Scribble PDZ1 (Homo sapiens), sequence (Q14160 725-818): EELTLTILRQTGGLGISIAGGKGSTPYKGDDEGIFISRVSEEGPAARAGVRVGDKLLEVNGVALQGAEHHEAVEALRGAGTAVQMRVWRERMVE
MBP-fused PDZ domain of SYNJ2BP (human), sequence (P57105 13-100): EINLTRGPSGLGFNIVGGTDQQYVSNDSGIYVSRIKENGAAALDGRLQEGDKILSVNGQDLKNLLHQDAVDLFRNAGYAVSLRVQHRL

MBP-fused PDZ domain of SYNJ2BP (from UniProt P57105 13-100) (domain or fragment)
BI [1]: 0.26
Kd [1]: 45.4 µM
BI [2]: 0.54
Kd [2]: 12.6 µM
Kd [3]: 25 µM

MBP-fused PDZ domain of SNTB1 (from UniProt Q13884 112-195) (domain or fragment)
BI [1]: 0.22
Kd [1]: 57.2 µM
BI [2]: 0.45
Kd [2]: 18.6 µM
Kd [3]: 48 µM

RSK1 683-735 peptide, unphosphorylated (from UniProt Q15418 683-735)
Kd [4]: > 100 µM
Kd [5]: 27 µM
Kd [6]: > 100 µM
Kd [7]: 6.6 µM

HPV16 E6 PBM (from UniProt P03126)
Kd [8]: 7.5 µM

MBP-fused PDZ domain of SNTG2 (from UniProt Q9NY99 73-156) (domain or fragment)
BI [1]: 0.41
Kd [1]: 22.1 µM
BI [2]: 0.52
Kd [2]: 13.8 µM
Kd [3]: 37 µM

MBP-fused PDZ domain 3 of PDZD7 (from UniProt Q9H5P4 862-934) (domain or fragment)
BI [2]: 0.15
Kd [2]: 92.9 µM
Kd [9]: 6.2 µM

RSK1 (ribosomal S6 kinase 1) 725-735 (from UniProt Q15418) pS732 peptide
KD [10]: lost; reference 2.79 ± 0.11
KD [11]: weaker; reference 7.02 ± 0.27
KD [12]: weaker; reference 6.2 ± 0.9
KD [13]: weaker; reference 20 ± 1
KD [14]: weaker; reference 8.92 ± 0.44
other: holdup binding intensity (BI) [15]: gained; reference 0.00 ± 0.01
other: holdup binding intensity (BI) [16]: lost; reference 0.20 ± 0.04
other: holdup binding intensity (BI) [17]: lost; reference 0.41 ± 0.01
other: holdup binding intensity (BI) [18]: gained; reference 0.04 ± 0.02
other: holdup binding intensity (BI) [19]: lost; reference 0.29 ± 0.01
other: holdup binding intensity (BI) [20]: gained; reference −0.02 ± 0.05
other: holdup binding intensity (BI) [21]: weaker; reference 0.43 ± 0.02
other: holdup binding intensity (BI) [22]: gained; reference 0.05 ± 0.02
other: holdup binding intensity (BI) [23]: gained; reference 0.06 ± 0.02
other: holdup binding intensity (BI) [24]: gained; reference 0.00 ± 0.02
other: holdup binding intensity (BI) [25]: lost; reference 0.27 ± 0.03
other: holdup binding intensity (BI) [26]: same; reference 0.28 ± 0.03
other: holdup binding intensity (BI) [27]: stronger; reference 0.26 ± 0.01
other: holdup binding intensity (BI) [28]: gained; reference 0.01 ± 0.06
other: holdup binding intensity (BI) [29]: gained; reference 0.11 ± 0.03
other: holdup binding intensity (BI) [30]: weaker; reference 0.41 ± 0.02
other: holdup binding intensity (BI) [31]: lost; reference 0.28 ± 0.06
other: holdup binding intensity (BI) [32]: weaker; reference 0.44 ± 0.03
other: holdup binding intensity (BI) [33]: gained; reference 0.01 ± 0.02
other: holdup binding intensity (BI) [34]: lost; reference 0.23 ± 0.04
other: holdup binding intensity (BI) [35]: weaker; reference 0.42 ± 0.01

MBP-fused PDZ domain of MAST2 (from UniProt Q6P0Q8 1104-1192) (domain or fragment)
BI [1]: 0.74
BI [2]: 0.23
Kd [2]: 53.8 µM
Kd [9]: 7.02 µM

MBP-fused PDZ domain of ARHGEF12 (from UniProt Q9NZN5 72-151) (domain or fragment)
BI [1]: 0.77
Kd [1]: 4.2 µM
Kd [2]: > 100 µM
Kd [9]: 2.79 µM

MBP-fused PDZ domain 2 of GRID2IP (from UniProt A4D2P6 279-356) (domain or fragment)
BI [1]: 0.67
Kd [1]: 7.1 µM
Kd [2]: > 100 µM
Kd [9]: 3.96 µM
